Reference: patent US20230059690A1 (published 2023)

T1: cynomolgus monkey PSMA (cynomolgus monkey, UniProt A0A2K5VNZ0 44-750)
T1 chain: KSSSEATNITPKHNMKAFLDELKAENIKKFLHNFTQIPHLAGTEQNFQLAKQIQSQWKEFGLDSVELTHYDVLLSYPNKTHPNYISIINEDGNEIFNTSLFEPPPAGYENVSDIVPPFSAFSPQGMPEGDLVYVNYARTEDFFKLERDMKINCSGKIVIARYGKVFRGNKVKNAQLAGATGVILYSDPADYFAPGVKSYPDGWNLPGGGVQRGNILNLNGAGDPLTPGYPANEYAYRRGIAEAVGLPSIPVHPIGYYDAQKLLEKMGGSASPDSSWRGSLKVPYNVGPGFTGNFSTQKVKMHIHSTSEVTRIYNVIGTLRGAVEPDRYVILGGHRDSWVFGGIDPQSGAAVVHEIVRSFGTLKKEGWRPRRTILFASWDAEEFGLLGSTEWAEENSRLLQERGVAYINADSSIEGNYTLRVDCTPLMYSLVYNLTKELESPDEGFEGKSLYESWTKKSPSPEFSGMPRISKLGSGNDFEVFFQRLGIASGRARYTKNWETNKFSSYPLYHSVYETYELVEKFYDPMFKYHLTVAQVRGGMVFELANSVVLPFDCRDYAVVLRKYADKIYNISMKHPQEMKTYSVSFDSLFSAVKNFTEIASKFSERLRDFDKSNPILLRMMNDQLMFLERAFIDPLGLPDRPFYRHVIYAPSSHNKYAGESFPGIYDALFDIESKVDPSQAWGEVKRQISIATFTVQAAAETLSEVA

B1: cHv75-2a7.G1(C99Y;L328C)k (antibody, V domains shown)
VH: EVQLVESGGGLVQPGGSLRLSCAASGITFSNYWMSWVRQAPGKGLEWVANIKKDGSEKFYVDSVKGRFTISRDNAKNSLYLQINSLRAEDTAMYYCAREIQLYLQHWGQGTLVTVSS
VL: DIQMTQSPSSVSASVGGRVTITCRASQGISNWLAWYQQKPGKAPKLLIYAASSLQSGVPSRFSGSGSGTDFTLTISNLQPEDFASYYCQQANSFPLTFGGGTKVEIKR
B2: cHv75-2a11.G1(L328C)k (antibody, V domains shown)
VH: QVQLVESGGGVVQPGRSLRLSCAASGFTFSSYDMHWVRQAPGKGLEWVAVIWYDGSNKYYADSLKGRFTISRDNSKNTLYLQMNSLRAEDTAVYYCARVIAARTFYYYGMDVWGQGTTVTVSS
VL: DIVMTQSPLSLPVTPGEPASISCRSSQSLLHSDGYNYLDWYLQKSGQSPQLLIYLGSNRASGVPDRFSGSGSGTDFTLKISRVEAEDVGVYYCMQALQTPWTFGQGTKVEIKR

Tests used:
human PSMA [1] = target: T2, human PSMA (human, UniProt Q04609 44-750); experiment: SPR
T2 sequence (Q04609 44-750): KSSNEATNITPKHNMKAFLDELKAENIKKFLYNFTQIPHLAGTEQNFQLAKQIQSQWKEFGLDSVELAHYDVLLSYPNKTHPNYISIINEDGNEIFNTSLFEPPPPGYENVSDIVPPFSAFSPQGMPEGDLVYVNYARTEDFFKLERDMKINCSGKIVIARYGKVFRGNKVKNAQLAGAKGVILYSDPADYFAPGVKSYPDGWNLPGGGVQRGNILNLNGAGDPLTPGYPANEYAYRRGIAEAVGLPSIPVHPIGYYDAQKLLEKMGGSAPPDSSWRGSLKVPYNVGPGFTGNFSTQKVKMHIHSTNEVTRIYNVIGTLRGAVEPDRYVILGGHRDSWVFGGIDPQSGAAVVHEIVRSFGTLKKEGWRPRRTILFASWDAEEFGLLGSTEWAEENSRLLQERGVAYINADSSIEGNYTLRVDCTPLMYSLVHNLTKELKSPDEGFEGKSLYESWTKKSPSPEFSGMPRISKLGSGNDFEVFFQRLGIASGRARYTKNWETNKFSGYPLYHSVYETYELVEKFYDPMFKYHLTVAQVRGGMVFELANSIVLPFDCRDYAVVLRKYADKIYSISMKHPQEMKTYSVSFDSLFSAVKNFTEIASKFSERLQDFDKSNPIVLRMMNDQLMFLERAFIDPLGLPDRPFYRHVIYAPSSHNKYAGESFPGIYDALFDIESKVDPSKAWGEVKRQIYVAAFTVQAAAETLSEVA

cynomolgus monkey PSMA [2] = target: T1, cynomolgus monkey PSMA; experiment: SPR
human PSMA [3] = target: T2, human PSMA; experiment: ELISA
cynomolgus monkey PSMA [4] = target: T1, cynomolgus monkey PSMA; experiment: ELISA
cynomolgus monkey PSMA [5] = target: T1, cynomolgus monkey PSMA; experiment: FACS; CHO-cyno PSMA cells
human PSMA [6] = target: T2, human PSMA; experiment: FACS; Rat1(e) hPSMA cells, lot RC6589
human PSMA [7] = target: T2, human PSMA; experiment: FACS; CHO-human PSMA cells
human PSMA [8] = target: T2, human PSMA; experiment: FACS; Rat1(e) hPSMA cells, lot RC6647

Binder	Kd (human PSMA [1])	Kd (cynomolgus monkey PSMA [2])	Kd (human PSMA [3])	Kd (cynomolgus monkey PSMA [4])	Kd (cynomolgus monkey PSMA [5])	Kd (human PSMA [6])	Kd (human PSMA [7])	Kd (human PSMA [8])
B1	11 nM	36 nM	0.074 nM	0.063 nM	0.166 nM	0.205 nM	0.094 nM	–
B2	59 nM	47 nM	0.138 nM	0.104 nM	0.431 nM	–	0.709 nM	0.761 nM
